Reference: the RNAGym collection of RNA variant scans (doi:10.1073/pnas.2313332121)
Fewer inactive variants are shown than the library holds.

B1: TPR 5TU (parent)
chain: GGAUCUUCUCGAUCUAACAAAAAAGACAAAUCUGCCACAAAGCUUGAGAGCAUCUUCGGAUGCAGAGGCGGCAGCCUUCGGUGGCGCGAUAGCGCCAACGUUCUCAACUAUGACACGCAAAACGCGUGCUCCGUUGAAUGGAGUUUAUCAUG

Variants of: B1
Experiment: polymerase ribozyme fitness, log enrichment relative to wild type (log ratio); higher = more active; in vitro selection for triplet polymerase activity
Method in brief: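 A heterodimeric triplet polymerase ribozyme had each of its subunits mutagenized by PCR into a library, which was transcribed. One round of in vitro selection, done in triplicate, annealed each library with a biotinylated primer, its partner subunit and triplets, then incubated it frozen at −7 °C before gel excision of extended constructs, streptavidin-bead capture and RT-PCR. Fitness is the logarithm of genotype enrichment relative to wild-type enrichment, based on Illumina sequencing of inputs and outputs and inverse-variance-weighted replicate averages. A base-2 logarithm is used, and genotypes were kept only with ≥10 input reads and ≥1 read per output.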

Row | Variant | polymerase ribozyme fitness (log ratio)
1 | G65A G71U C85A | ≤ -4.2
2 | A3U C5G A19U C36U G83A | -3.1
3 | G42C G48A C103A U144C | ≤ -4.2
4 | U7G G50C G58U C63U C76A G92A C149G | ≤ -4.2
5 | U9A A17U G58A U151A | ≤ -4.2
6 | U55A A150C | -3.6
7 | U56G C87A C103U C114U C125U | ≤ -4.2
8 | A3U G58C | -0.0781
9 | A26U A37C A47G C85U U90A U145A U146C | ≤ -4.2
10 | U56A C95U C99U C125G | -2.57
11 | A41C G50C G83U C95A C99U C105G A137C | ≤ -4.2
12 | C38U G86A A137G A147U | -2.49
13 | U109G C114G | -3.7
14 | G92U A107U | -3.2
15 | A52C U55G G58C G59A A66C | ≤ -4.2
16 | U6C A17U A64U A73U C85G U127A U130G A142G | ≤ -4.2
17 | G11A C54U U61A C95A C149G | ≤ -4.2
18 | C5G A19G A29C A39C U145C | ≤ -4.2
19 | A97G G143A | -1.44
20 | A19U C123U | -0.609
21 | A49G C125G | -0.947

Row | Variant | polymerase ribozyme fitness (log ratio)
22 | C99A U148G | ≤ -4.2
23 | C54G G92C A106G | -2.99
24 | C27U C57A A66C G71A C96A U130A | ≤ -4.2
25 | A3U C18A A22U A37G C85U | -3.29
26 | G58U U82A G84U U146G | -2.04
27 | C8G C35G C105G U144A | ≤ -4.2
28 | C5G G46U G81U C87U G88A A98U C125U | ≤ -4.2
29 | A16U A21G C85G C93A C116A A150U | ≤ -4.2
30 | C5A C14G A37U A52C C85G C99U G140U | ≤ -4.2
31 | U15A A142C | -0.894
32 | A60G C93G A147G | -4.1
33 | A41G G65A G143U | -3.42
34 | C10U A22U A29G U53G C75A G83A A106U A150C | ≤ -4.2
35 | A19U C96G A122U | -0.445
36 | U13A A52G U56A C75U U78A C87U C93A G136C C149A | ≤ -4.2
37 | U44A C76U | -4.19
38 | C27U A40U G58C G59U G92U | -2.23
39 | C35U G50C C76A C79G C87G A142C G152U | ≤ -4.2
40 | C35U U45A G83C C85G A97G G141C | ≤ -4.2
41 | U55G A60G C79U A119C | -2.12
42 | C14G A26U G58C A89U G117U A120C C125A | ≤ -4.2

Row | Variant | polymerase ribozyme fitness (log ratio)
43 | A16U G86A A91U A106G C108U C129A | ≤ -4.2
44 | C108G G136A A147C | ≤ -4.2
45 | A49C C85U | -3.49
46 | C54U C87U A115U | -1.85
47 | C8G A12U G25A A28U A39C G58C G94U U144G | ≤ -4.2
48 | A47G G59C G92U C99A C118G | -3.37
49 | U7A A19C G92C C105A A115U C116U A137U | ≤ -4.2
50 | C38U C87U G94U | -1.73
51 | A16U C63U | -1.7
52 | U53G U55A U78A C93U A142C U148C | ≤ -4.2
53 | C95U C123U | 0.509
54 | G46C C76U | ≤ -4.2
55 | G59C G100A A115C U144C | ≤ -4.2
56 | A3G U13G A21U A40U C69A C79G G80A G83U C85U G86U G136C | ≤ -4.2
57 | C85A U144A | -0.579
58 | C18G A24G G50U U55A A106C C125A | ≤ -4.2
59 | U56G G70U C85U U151A | ≤ -4.2
60 | C27A G86U U144A | ≤ -4.2
61 | G80A G84A A120G | -1.33
62 | C14U C43U C72A G84A C93G C95G A142G U144A | ≤ -4.2
63 | C5G A91U | ≤ -4.2

Row | Variant | polymerase ribozyme fitness (log ratio)
64 | C35G C51G U56G G70A C76G C85G G133U | ≤ -4.2
65 | G74A A91U G117U G141U | ≤ -4.2
66 | U44A U144C | -3.62
67 | G42U U56A G58A C76U C95G A98G | ≤ -4.2
68 | A41C G50A G74A U82G C95U A107C | ≤ -4.2
69 | U33A A91C | ≤ -4.2
70 | C32G G59C C87G | ≤ -4.2
71 | C8U U55A | -2.51
72 | A60C C93A | -3.64
73 | U45G A47G C54U C93G | ≤ -4.2
74 | A47C G141A | -1.5
75 | U90G A97G C114U U139G | ≤ -4.2
76 | A41U G50U A64U C118G A150C | ≤ -4.2
77 | C10U A52C C87U G88A A122U C123G | ≤ -4.2
78 | A19G C85G G117A A137G | -2.73
79 | U78A C93G C108U | ≤ -4.2
80 | C96G C131A | -2.35
81 | G34U G58C C69U A91G G128A U135C | ≤ -4.2
82 | A40C G94U C129G U139A G141U U146C | ≤ -4.2
83 | A29U U45A G70A C85G | ≤ -4.2
84 | C36U A64C G136A U145C A147C | ≤ -4.2
